B1: PfPrx1a wild type (enzyme, P. falciparum, UniProt Q8IL80 1-195, looked up)
chain: MASYVGREAPYFKAEAVFADNTFGEVNLHDFIGKKYVLLYFYPLDFTFVCPSEIIALDKALDAFKERNVELIGCSVDSKYTHLAWKKTPLTKGGIGNIQHTLISDITKSISRSYNVLFGDSVSLRAFVLIDKQGVVQHLLVNNLAIGRSVEEVLRIIDAVQHHEQHGDVCPANWKKGKVAMKPSEEGVSEYLSKL
notes: PfPrx1a (thioredoxin peroxidase 1), Plasmodium falciparum; peroxidatic C50, resolving C170, further C74; also called PfPrx1a wt; thioredoxin peroxidase 1; source: E. coli M15 (pQE30), purified (Ni-NTA); not shown: His6, N-terminal, kept; copies: 10
B2: PfPrx1m wild type (enzyme, P. falciparum)
chain: SLVTKKAYNFTAQGLNKNNEIINVDLSSFIGQKYCCLLFYPLNYTFVCPTEIIEFNKHIKDFENKNVELLGISVDSVYSHLAWKNMPIEKGGIGNVEFTLVSDINKDISKNYNVLYDNSFALRGLFIIDKNGCVRHQTVNDLPIGRNVQEVLRTIDSIIHVDTSGEVCPINWKKGQKAFKPTTESLIDYMNNANKNV
notes: PfPrx1m (thioredoxin peroxidase 2), Plasmodium falciparum, mitochondrial; peroxidatic C67, resolving C187, further C54, C55, C152; also called PfPrx1m wt; thioredoxin peroxidase 2; source: E. coli M15 (pQE30), purified (Ni-NTA); not shown: His6, N-terminal, kept; copies: 10

Columns and labels:
[1] = target: the molecule itself; assay: not stated; 6xHis-tagged Prx reduced with DTT, in purification buffer and in coupling buffer; method not given
recombinant PfSAHH wt = target: T1, recombinant PfSAHH wt (P. falciparum, UniProt P50250 1-479); assay: pull-down; 2 mg reduced PfPrx1a wt on CNBr-activated Sepharose 4B; 8 mg purified recombinant PfLDH wt or PfSAHH wt (not pre-reduced); extensive washing; eluted with 10 mM DTT; silver-stained 12% SDS-PAGE; settings: both partners purified
T1 construct: S-adenosyl-L-homocysteine hydrolase, Plasmodium falciparum, wild type; not pre-reduced in the assay; also called S-adenosyl-L-homocysteine hydrolase; source: recombinant, purified (produced as previously described)
T1 sequence (P50250 whole entry): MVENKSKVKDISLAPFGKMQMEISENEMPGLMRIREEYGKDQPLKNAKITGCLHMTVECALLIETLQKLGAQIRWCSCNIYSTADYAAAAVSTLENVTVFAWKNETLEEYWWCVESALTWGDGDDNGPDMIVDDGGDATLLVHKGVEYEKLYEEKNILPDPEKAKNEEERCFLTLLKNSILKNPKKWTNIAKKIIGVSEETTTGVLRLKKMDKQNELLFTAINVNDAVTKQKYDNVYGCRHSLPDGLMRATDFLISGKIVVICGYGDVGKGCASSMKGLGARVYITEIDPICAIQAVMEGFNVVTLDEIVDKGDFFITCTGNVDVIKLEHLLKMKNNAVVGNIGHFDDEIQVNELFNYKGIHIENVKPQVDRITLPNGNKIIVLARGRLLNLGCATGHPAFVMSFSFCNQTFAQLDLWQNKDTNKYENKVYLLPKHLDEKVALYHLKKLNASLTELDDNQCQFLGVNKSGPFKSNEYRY

| Binder | stoichiometry N [1] | binding result (recombinant PfSAHH wt) |
| --- | --- | --- |
| B1 | 10 | binds |
| B2 | 10 |  |

Source: paper PMC6753162, “The interactome of 2-Cys peroxiredoxins in Plasmodium falciparum” (Scientific Reports, 2019)
